We go through 6 substances from patent publication US20170119913A1.

Bounds are passed on as bounds.

The term IC50 denotes the midpoint of a concentration-inhibition curve. For orientation: Ki means a dissociation constant, usually derived from enzyme kinetics or from competition with a known ligand.

Test [1] concerns the target NTR1 on HT29 or NTR1-expressing HEK293 cells (UniProt P30989). The test is described as follows: cell-based or functional assay.
The target of test [2] is neurotensin receptor 1 (NTR1), human, prepared from CHO cells recombinantly expressing the human receptor (human) (UniProt P30989).
Sequence of neurotensin receptor 1 (NTR1), human, prepared from CHO cells recombinantly expressing the human receptor (human) (P30989 whole entry): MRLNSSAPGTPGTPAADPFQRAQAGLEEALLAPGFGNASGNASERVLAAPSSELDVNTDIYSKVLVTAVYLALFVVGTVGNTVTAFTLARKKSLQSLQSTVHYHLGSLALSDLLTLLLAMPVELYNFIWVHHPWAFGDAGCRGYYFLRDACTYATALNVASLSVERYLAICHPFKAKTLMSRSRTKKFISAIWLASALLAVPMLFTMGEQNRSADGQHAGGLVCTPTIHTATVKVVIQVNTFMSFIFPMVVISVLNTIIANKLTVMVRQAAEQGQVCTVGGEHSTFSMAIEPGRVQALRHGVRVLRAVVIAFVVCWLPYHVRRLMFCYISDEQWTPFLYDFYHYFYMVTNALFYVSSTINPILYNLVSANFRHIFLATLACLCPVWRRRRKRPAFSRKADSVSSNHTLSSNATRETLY
The target in test [3] is SKCa channel.
In test [4] the target is KV channel.
Test [5] has as its target sst (non-selective), somatostatin receptor. Kind of test: Cerep ExpresSProfile radioligand competition binding, reference compound (agonist radioligand).

Sequence of NTR1 on HT29 or NTR1-expressing HEK293 cells (P30989 whole entry): as above

With “1206-Glutar-Ttds3-Asn-Ala-Val-Pro-Asn-Leu-Arg-Gly-Asp-Leu-Gln-Val-Leu-Ala-Gln-Lys-Val-Ala-Arg-Thr-GA (peptide)”, in test [1], the Agonistic Effect EC50 [nM], functional Ca2+ mobilisation assay is above 50000 nM and the Antagonistic Effect IC50 [nM], functional Ca2+ mobilisation assay amounted to 38 nM. The IC50 in test [2] is 9.9 nM.

“1206-Glutar-Ttds-Lys(1206-Glutar-Ttds)-Ttds-Asn-Ala-Val-Pro-Asn-Leu-Arg-Gly-Asp-Leu-Gln-Val-Leu-Ala- (peptide)”: in test [1], the Agonistic Effect EC50 [nM], functional Ca2+ mobilisation assay was above 50000 nM and the Antagonistic Effect IC50 [nM], functional Ca2+ mobilisation assay is 12 nM. Besides, in test [2], the IC50 stood at 7.5 nM.

For “apamin (from UniProt P01500 28-45) (peptide)”, the Ki in test [3] was 0.0084 nM.

“1206-Glutar-Ttds-Lys(DOTA)-Ttds-GABA-Asn-Ala-Val-Pro-Asn-Leu-Arg-Gly-Asp-Leu-Gln-Val-Leu-Ala-Gln-Lys (peptide)”: in test [1], the Agonistic Effect EC50 [nM], functional Ca2+ mobilisation assay was above 50000 nM and the Antagonistic Effect IC50 [nM], functional Ca2+ mobilisation assay came out at 18 nM. The IC50 in test [2] is 10 nM.

In test [4], “alpha-dendrotoxin (from UniProt P00980 1-59) (peptide)” displayed a Ki of 0.2 nM.

“somatostatin-14 (from UniProt P61278 103-116) (peptide)” registered a Ki in test [5] of 0.11 nM.
